The results in this text go back to patent US20040023883A1 (published 2004).

Assay [1] has as its target T1, IGF-I F49A on phage (G1S-A70V template) (human; bacteriophage M13).
T1 chain: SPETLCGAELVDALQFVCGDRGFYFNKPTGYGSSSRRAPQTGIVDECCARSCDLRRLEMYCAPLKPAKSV
Nature of the assay: competitive phage ELISA. Conditions: remark: other sources report otherwise. (In general: ELISA stands for enzyme-linked immunosorbent assay.)

In assay [2] the target is T1, IGF-I F49A on phage (G1S-A70V template) …. Briefly: competitive phage ELISA; ratio against IGFBP-3. The settings on record: remark: other sources report otherwise.
Assay [3] addresses IGF-I S1A on phage (G1S-A70V template) (human; bacteriophage M13). Briefly: competitive phage ELISA. An excerpt:
(§1) Phage particles were harvested and resuspended in PBS buffer as described in Lowman, H. B., “Phage Display of Peptide Libraries on Protein Scaffolds,” in Cabilly, S. (ed.), Combinatorial Peptide Library Protocols (Humana Press Inc.: Totowa, N.J., 1998), pp. 249-264. Then phage concentrations were normalized to yield a maximal ELISA signal of 0.2-0.4 for each mutant (Lowman, in Cabilly, S. (ed.), supra). […] After blocking, the plates containing immobilized target were washed with 0.05% TWEEN™/PBS buffer and subsequently incubated with 80 μl/well of the premixed phage-competitor solutions for 1 hour at room temperature. After washing, bound phage was detected with 80 μl/well of a solution containing a primary rabbit anti-phage polyclonal antibody and a secondary goat anti-rabbit monoclonal antibody-horseradish peroxidase conjugate in 0.5% TWEEN 20™/PBS. o-Phenylenediamine (Sigma) and tetramethylbenzidine (Kirkegaard and Perry) were used as chromogenic substrates, resulting in product detection at 492 and 450 nm, respectively. IC₅₀ values were determined by fitting the binding data to a generic saturation curve (Lowman, in Cabilly, S. (ed.), supra).
(§2) At least two different clones of every mutant were tested.

Assay [4] concerns the target T2, IGF-I P2A on phage (G1S-A70V template) (human; bacteriophage M13).
T2 construct: not shown: M13 gene III fragment (residues 249-406), the display carrier, and its junction to IGF-I
Briefly: competitive phage ELISA.
Excerpt: as §1, §2

B1: human IGFBP-1 (other, UniProt P08833 26-259, looked up)
chain: APWQCAPCSAEKLALCPPVSASCSEVTRSAGCGCCPMCALPLGAACGVATARCARGLSCRALPGEQQPLHALTRGQGACVQESDASAPHAAEAGSPESPESTEITEEELLDNFHLMAPSEEDHSILWDAISTYDGSKALHVTNIKKWKEPCRIELYRVVESLAKAQETSGEEISKFYLPNCNKNGFYHSRQCETSMDGEAGLCWCVYPWNGKRIPGSPEIRGDPNCQIYFNVQN
notes: Recombinant secreted protein
The term IC50 denotes the concentration that inhibits the measured activity by half. Read a low IC50 as higher potency. In assay [1], B1 displayed a relative IC50 (IC50 mut/IC50 G1S-A70V) above 100. Besides, the relative specificity (relative IC50 IGFBP-1/relative IC50 IGFBP-3) in assay [2] is above 28. In addition, the IC50 in assay [3] amounted to 5.2 nM; in assay [4], 11 nM.
